US20080187528A1 (FUNCTIONAL GENETICS, published 2008)

Legend:
[1] = target: biotinylated peptide Bio-… containing 11 amino acid residues from the N terminus of the Ebola VP40 (Ebola virus (EBOV))
[2] = target: T1, truncated (31-326) Ebola VP40 (Ebola virus (EBOV), UniProt Q05128 31-326); experiment: Far Western
T1 sequence: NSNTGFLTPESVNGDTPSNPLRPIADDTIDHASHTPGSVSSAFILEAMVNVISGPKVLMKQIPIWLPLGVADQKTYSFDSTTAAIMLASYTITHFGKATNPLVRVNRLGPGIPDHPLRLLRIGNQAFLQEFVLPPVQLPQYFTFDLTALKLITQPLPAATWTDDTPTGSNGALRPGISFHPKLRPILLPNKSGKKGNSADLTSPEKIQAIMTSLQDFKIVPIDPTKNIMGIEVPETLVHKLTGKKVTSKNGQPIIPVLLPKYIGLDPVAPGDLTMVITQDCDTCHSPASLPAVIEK

B1: purified TSG101 protein that contains only the UEV domain (other)
chain: AVSESQLKKMVSKYKYRDLTVRETVNVITLYKDLKPVLDSYVFNDGSSRELMNLTGTIPVPYRGNTYNIPICLWLLDTYPYNPPICFVKPTSSMTIKTGKHVDANGKIYLPYLHEWKHPQSDLLGLIQVMIVVFGDEPPVFSRP
- Kd [1]: 2 µM
- binding result [2]: no binding
